Assay [1] addresses Jurkat cell 105 kD lactoferrin receptor (human). The experiment in a line: Scatchard analysis, 125I-labelled protein on whole Jurkat cells (species comparison).
Assay [2] concerns the target HT-29 cells (human colon carcinoma cell line). The experiment in a line: Scatchard analysis, 125I-labelled lactoferrin on HT-29 cells; High affinity (nM).
The target in assay [3] is human lysozyme (human) (UniProt P61626). Description: solid-phase ligand binding ELISA on hLZ-coated plates.
The target in assay [4] is Jurkat cell 105 kD lactoferrin receptor (human). The experiment in a line: Scatchard analysis, 125I-labelled protein on whole Jurkat cells.
The target in assay [5] is human lysozyme (human) (UniProt P61626). Description: solid-phase ligand binding ELISA on hLZ-coated plates; percent of the response with natural hLF.
The target of assay [6] is HT-29 cells (human colon carcinoma cell line). Description: Scatchard analysis, 125I-labelled lactoferrin on HT-29 cells; High affinity (nM); the cell wraps into r15 (8^a)).
Assay [7] concerns the target Jurkat cell 105 kD lactoferrin receptor (human). Description: Scatchard analysis, Jurkat cells cultured 24 h with 30 mM sodium chlorate.
Assay [8] deals with HT-29 cells (human colon carcinoma cell line). The experiment in a line: Scatchard analysis, 125I-labelled lactoferrin on HT-29 cells; column Total affinity (µM); high affinity binding lost (--).
For assay [9] the target is unchanged. The experiment in a line: Scatchard analysis, 125I-labelled lactoferrin on HT-29 cells; column Total affinity (µM); high affinity binding lost (--); one experiment.
Assay [10] has as its target Jurkat cell 105 kD lactoferrin receptor (human). The experiment in a line: Scatchard analysis, 125I-hLf on Jurkat cells cultured without sodium chlorate.
Assay [11] has the same target. The experiment in a line: Scatchard analysis, 125I-hLf on Jurkat cells cultured 24 h with 30 mM sodium chlorate.

Chain of bovine lactoferrin (P24627 20-708 limits assumed): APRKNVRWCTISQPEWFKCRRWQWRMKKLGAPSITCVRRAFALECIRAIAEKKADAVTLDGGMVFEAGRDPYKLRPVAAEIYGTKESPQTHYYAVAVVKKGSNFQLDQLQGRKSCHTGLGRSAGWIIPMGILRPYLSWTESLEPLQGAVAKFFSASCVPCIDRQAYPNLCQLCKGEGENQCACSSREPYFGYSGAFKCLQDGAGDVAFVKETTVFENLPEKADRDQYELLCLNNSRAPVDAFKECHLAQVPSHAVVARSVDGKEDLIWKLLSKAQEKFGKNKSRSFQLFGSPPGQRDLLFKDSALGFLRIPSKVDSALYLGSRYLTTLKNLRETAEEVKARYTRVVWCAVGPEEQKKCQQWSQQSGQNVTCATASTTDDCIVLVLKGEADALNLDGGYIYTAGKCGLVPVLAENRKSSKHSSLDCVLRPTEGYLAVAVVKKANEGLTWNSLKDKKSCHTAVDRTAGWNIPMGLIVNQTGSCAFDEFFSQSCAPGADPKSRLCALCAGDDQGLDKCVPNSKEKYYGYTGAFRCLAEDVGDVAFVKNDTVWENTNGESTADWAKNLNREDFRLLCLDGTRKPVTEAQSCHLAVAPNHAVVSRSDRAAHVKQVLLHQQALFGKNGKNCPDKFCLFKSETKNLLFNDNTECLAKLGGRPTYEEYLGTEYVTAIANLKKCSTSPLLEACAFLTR

For the substance “bovine lactoferrin (from UniProt P24627) (ligand)”, the dissociation constant Kd was 60 nM in assay [1] and 81 nM in [2].
For the substance hLF^-2N (from UniProt P02788) (ligand), the fold lower affinity than N-terminally intact hLF in assay [3] was determined as 3 fold lower. Moreover, the Kd came to 65 nM in [4] and 124 nM in [6]. Also, the Reactivity (%) in assay [5] came to 37.5%.
In [3], hLF^-3N (from UniProt P02788) (ligand) yielded a fold lower affinity than N-terminally intact hLF of 17 fold lower. For the same substance, the Kd in assay [4] was determined as 57 nM; in assay [7], 57.2 nM; in assay [8], 1700 nM. The same substance showed a Reactivity (%) in assay [5] of 5.1%.
With hLF^-4N (from UniProt P02788) (ligand), the Kd in [4] was found to be 41 nM; in assay [9], 700 nM.
In turn, “iron-saturated human lactoferrin (from UniProt P02788) (ligand)” gave a Kd in assay [2] of 66 nM.
Substance “murine lactoferrin (from UniProt P08071) (ligand)” registered an equilibrium dissociation constant (Kd) in assay [1] of 31 nM.
Consider “natural human lactoferrin (from UniProt P02788) (ligand)”, for which the Kd turned out to be 69 nM in assay [4]; 71.1 nM in assay [10]; 60 nM in [1]; 62.6 nM in [11]; 74 nM in [2].
“non-modified recombinant human lactoferrin (from UniProt P02788) (ligand)”: the Kd in [4] amounted to 81 nM.
Consider rhLF^-5N (ligand), for which the Kd in assay [4] is 12.4 nM; in assay [7] it was 27.9 nM.
In the case of “transgenic hLF isolated from milk of a transgenic bovine (from UniProt P02788) (ligand)”, the dissociation constant (Kd) in assay [2] turned out to be 88 nM.

(Values after patent US6333311.)
